Reference: patent US20220333124
Where a chain is given by its changes, count along the chain named.

Tests used:
[1] = tested on: T1, Pb2Cpf1 (Prevotella bryantii B14); assay: cell_activity; settings: pea protoplasts, NGS; PAM TTTC per claims
T1 sequence: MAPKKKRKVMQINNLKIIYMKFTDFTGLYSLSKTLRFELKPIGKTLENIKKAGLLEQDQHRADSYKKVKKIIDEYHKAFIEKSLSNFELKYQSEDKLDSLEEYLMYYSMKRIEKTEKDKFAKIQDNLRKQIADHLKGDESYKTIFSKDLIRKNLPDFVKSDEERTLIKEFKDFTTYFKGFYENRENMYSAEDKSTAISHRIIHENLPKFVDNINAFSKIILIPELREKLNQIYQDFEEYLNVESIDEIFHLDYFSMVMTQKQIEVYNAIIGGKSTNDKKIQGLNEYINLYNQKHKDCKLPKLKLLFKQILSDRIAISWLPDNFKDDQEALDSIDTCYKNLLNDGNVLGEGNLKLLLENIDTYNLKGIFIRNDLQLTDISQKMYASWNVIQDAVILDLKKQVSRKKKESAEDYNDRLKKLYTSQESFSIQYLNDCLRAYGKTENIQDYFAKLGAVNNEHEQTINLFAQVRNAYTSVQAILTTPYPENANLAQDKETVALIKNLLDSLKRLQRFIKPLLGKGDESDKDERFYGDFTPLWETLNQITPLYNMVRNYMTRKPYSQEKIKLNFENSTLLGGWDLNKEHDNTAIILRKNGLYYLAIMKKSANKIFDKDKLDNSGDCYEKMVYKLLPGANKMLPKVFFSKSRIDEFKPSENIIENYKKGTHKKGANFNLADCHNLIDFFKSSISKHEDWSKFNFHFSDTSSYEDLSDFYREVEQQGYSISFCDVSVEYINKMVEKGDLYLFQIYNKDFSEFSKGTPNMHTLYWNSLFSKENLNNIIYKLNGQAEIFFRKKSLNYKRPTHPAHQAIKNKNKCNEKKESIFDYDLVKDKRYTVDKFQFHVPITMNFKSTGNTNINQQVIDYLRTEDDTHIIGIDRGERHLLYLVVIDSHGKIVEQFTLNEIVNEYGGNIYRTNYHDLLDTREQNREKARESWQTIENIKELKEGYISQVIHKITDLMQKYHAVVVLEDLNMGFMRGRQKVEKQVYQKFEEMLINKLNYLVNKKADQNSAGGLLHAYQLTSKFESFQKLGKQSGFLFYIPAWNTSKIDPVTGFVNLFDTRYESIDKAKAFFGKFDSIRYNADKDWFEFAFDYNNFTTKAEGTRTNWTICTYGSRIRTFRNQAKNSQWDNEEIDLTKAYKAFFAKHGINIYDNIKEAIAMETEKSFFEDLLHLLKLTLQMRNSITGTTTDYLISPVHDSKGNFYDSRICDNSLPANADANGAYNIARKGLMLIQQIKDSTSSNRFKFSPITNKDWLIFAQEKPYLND

[2] = tested on: T2, Pb2Cpf1 E173R (Prevotella bryantii B14); assay: cell_activity; settings: pea protoplasts, NGS; PAM TTTC per claims
T2 sequence: T1 sequence with E182R

In the case of “PsLOX2 guide RNA (plasmid 133806, MtU6 promoter; plasmid sequence given) ; PsLOX2 genomic target”, the activity [1] is reported as 0.32 % editing and the activity [2] is reported as 0.88 % editing.
